IntAct's records for PubMed 14561633

B1: Transcription factor GLABRA 3 (Arabidopsis thaliana (Mouse-ear cress)), Q9FN69 (parent)
chain: MATGQNRTTVPENLKKHLAVSVRNIQWSYGIFWSVSASQSGVLEWGDGYYNGDIKTRKTIQASEIKADQLGLRRSEQLSELYESLSVAESSSSGVAAGSQVTRRASAAALSPEDLADTEWYYLVCMSFVFNIGEGMPGRTFANGEPIWLCNAHTADSKVFSRSLLAKSAAVKTVVCFPFLGGVVEIGTTEHITEDMNVIQCVKTSFLEAPDPYATILPARSDYHIDNVLDPQQILGDEIYAPMFSTEPFPTASPSRTTNGFDQEHEQVADDHDSFMTERITGGASQVQSWQLMDDELSNCVHQSLNSSDCVSQTFVEGAAGRVAYGARKSRVQRLGQIQEQQRNVKTLSFDPRNDDVHYQSVISTIFKTNHQLILGPQFRNCDKQSSFTRWKKSSSSSSGTATVTAPSQGMLKKIIFDVPRVHQKEKLMLDSPEARDETGNHAVLEKKRREKLNERFMTLRKIIPSINKIDKVSILDDTIEYLQELERRVQELESCRESTDTETRGTMTMKRKKPCDAGERTSANCANNETGNGKKVSVNNVGEAEPADTGFTGLTDNLRIGSFGNEVVIELRCAWREGVLLEIMDVISDLHLDSHSVQSSTGDGLLCLTVNCKHKGSKIATPGMIKEALQRVAWIC
partner: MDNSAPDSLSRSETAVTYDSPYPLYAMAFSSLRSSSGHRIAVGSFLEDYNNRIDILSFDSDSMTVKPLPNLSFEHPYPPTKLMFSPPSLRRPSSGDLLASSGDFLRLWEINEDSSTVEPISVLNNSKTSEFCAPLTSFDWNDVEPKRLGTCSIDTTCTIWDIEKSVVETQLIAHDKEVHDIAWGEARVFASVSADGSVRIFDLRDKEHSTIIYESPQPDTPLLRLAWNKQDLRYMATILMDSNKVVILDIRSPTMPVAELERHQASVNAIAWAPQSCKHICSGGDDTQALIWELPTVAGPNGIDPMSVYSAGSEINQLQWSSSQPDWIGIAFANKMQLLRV
B2: Transcription factor GLABRA 3 (Arabidopsis thaliana (Mouse-ear cress)), Q9FN69 (parent)
chain: B1 chain
partner: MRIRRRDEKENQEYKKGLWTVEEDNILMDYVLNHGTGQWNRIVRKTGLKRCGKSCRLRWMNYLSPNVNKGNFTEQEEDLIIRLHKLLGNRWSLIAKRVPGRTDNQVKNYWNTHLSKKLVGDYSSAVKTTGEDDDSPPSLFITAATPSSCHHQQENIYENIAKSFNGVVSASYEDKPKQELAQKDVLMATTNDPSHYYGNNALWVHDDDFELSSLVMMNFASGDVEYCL

Variants of: B1
Conditions: with ttg1_arath TTG1, Q9XGN1

| Variant | effect of a mutation on the interaction |
| --- | --- |
| L78F | decreasing interaction |

Variants of: B2
Conditions: with gl1_arath GL1, P27900

| Variant | effect of a mutation on the interaction |
| --- | --- |
| L78F | decreasing interaction |
